Data taken from US20130018010A1, “POLYMERIC CONJUGATES OF ADENINE NUCLEOSIDE ANALOGS” (ENZON PHARMACEUTICALS, INC., priority 2010, published 2013).

Experiments:
[1] = Hydrolysis rate of PEG conjugates in rat plasma (HPLC); format: in vitro ADME; conditions: 37° C., disappearance of PEG derivative
Description: The rates of hydrolysis were obtained by employing a C18 reversed phase column (Jupiter®) using a gradient mobile phase consisting of (a) 0.05 M TFA buffer and (b) acetonitrile. A flow rate of 1 mL/min was used, and chromatograms were monitored using a UV detector at 260 nm for toyocamycin. For hydrolysis in plasma, the derivatives were dissolved in acetonitrile/MeOH at a concentration of 20 mg/mL. The solution was divided into vials with 100 μL and the solvent removed in vacuo. To the residue, 100 μL of plasma was added, then vortexed for 10 sec. The solutions were incubated at 37° C. for various periods of time. A mixture of methanol-acetonitrile (1:1, v/v, 400 μL) was added to a vial at the proper interval and the mixture was vortexed for 1 min, followed by filtration through […] filter membrane. An aliquot of 40 μL of the filtrate was injected into the HPLC. On the basis of the peak area, the amounts of native compound and PEG conjugates were estimated, and the half-life of each compound in different media was calculated using linear regression analysis from the disappearance of PEG derivative.
The rate of hydrolysis was measured by monitoring disappearance of polymer conjugates and appearance of the parent molecule by HPLC using the procedure for example as described in Example 4 in PBS and in rat plasma.

[2] = system: human melanoma cells (A375); assay: Tumor growth inhibition in mice xenografted with human melanoma; format: in vivo; conditions: for tumor growth inhibition: 1 or 5 mg/kg/dose (toyocamycin equivalent) at day 1, 5, 9, 13, compared to toyocamycin i.v. 5 mg/kg/dose, FIG. 18; for tail vein necrosis: 1 or 5 mg/kg/dose at day 1, 5, 9, 13; for effectiveness in the treatment of melanoma: versus untreated, toyocamycin, or 54
Description: The antitumor efficacies of compounds 6, 10, and 54 evaluated in human melanoma xenografted mice. Xenograft tumors were established in mice by injecting human melanoma cells (A375). The mice were treated with toyocamycin i.v. at 5 mg/kg/dose, or compounds 6, 10, and 54 at 1 or 5 mg/kg/dose (based on the amount of toyocamycin) at day 1, 5, 9, and 13. Control group mice received saline solution.

| Substance | t1/2 in rat plasma [1] [h] | tumor growth inhibition [2] | tail vein necrosis [2] | effectiveness in the treatment of melanoma [2] |
| --- | --- | --- | --- | --- |
| 40 k 4-Arm PEG-carbamate-Leu-Toyocamycin [Compound 6] | 0.033 | inhibited tumor growth significantly compared to toyocamycin | observed in only one mouse | more effective in the treatment of melanoma than untreated, toyocamycin, or 54 |
| 40 k 4-Arm PEG-Carbamate-Aib-Toyocamycin [Compound 10] | 4.1 | inhibited tumor growth significantly compared to toyocamycin | observed in only one mouse | more effective in the treatment of melanoma than untreated, toyocamycin, or 54 |
